# Reference: the DeepSol protein solubility set
# Experiment: soluble on expression in E. coli; label from the status in PepcDB or PDB records
row,Sequence,soluble on expression in E. coli
1,MSLEYKYELTIDKLLQSGVSSNPDQIINYTGKREFTFKDFSKRVNTLAKALISIGVKKGDRVAVIDWDTYVYLEAYFAVPMVDAVLHTVNVRYPQDLIYYTMDHAEDKYVIVRDEFVPILSKNREAFYFIKGWIVYSETGQIPDSLSPKYVYDDLMKESYSDIELPQLSENDLATTFYTSGTTGIPKGVQFTHRQIVLHSISSGLALADDPINLTSRDVIMPLVPMFHVHAWGVPYMSIMSGRRYVLPGRYDFDHIIDLIDKYNVSVIAMVPSILYLIVTNPNVKKIAGRGIKAIVGGGALPEGLANAAEKLGITAISGYGLSETAPILTLATYNERVKAMPESEKKKFRLKTGIPIPLVQLRVVDDKMNDVPKDEKTIGEIVVRAPWLTSVYVKNKEGTEALWRGDWMHTGDLAVMDEYGYIRIVDREKDAVKSGGEFIPSLVLEDAISSCSGVVENAVVGRPDEKWGERPVAFYTGTAKPDEIRKHLIEMVNAGRIAKFWIPDDFINIKEFAKTSTGKIDKKVLREMIKKEGHHHHHH,soluble
2,NSNFINIGERTNVAGSRKFARLIREKNYEEALTIARHQVENGAQIIDINFDDALLDARSEMETFLRLIASEPEISKVPVMIDSSNFEVLKVGLKSIQGKAIVNSISLKVGEEKFIEEAKFIKNFGAGVVVMAFDEEGQAATYERKIEICKRAYTILTEKVEFPPENIIFDPNILSIATGIEEHDNYAVNYIKAVKWIKENLPYAKVSGGVSNLSFSFRGNDAIRRAMHSVFLYHAINAGMDMGIVNPAMIDLYDDIDKDLLEKVENVVLNKSSNASESLLEFAQTYKKTTETLEKH,not soluble
3,MERSLDSLAGMAKSAFGAGTSAAMRQATSPKTILEYIINFFTCGGIRRRNETQYQELIETMAETLKSTMPDRGAPLPENIILDDMDGCRVEFNLPGENNEAGQVIVRVSKGDHSETREIPLASFEKICRALLFRCEFSLPQDSVILTAQGGMNLKGAVLTGANLTSENLCDADLSGANLEGAVLFMADCEGANFKGANLSGTSLGDSNFKNACLEDSIMCGATLDHANLTGANLQHASLLGCSMIECNCSGANMDHTNLSGATLIRADMSGATLQGATIMAAIMEGAVLTRANLRKASFISTNLDGADLAEANLNNTCFKDCTLTDLRTEDATMSTSTQTLFNEFYSENI,not soluble
4,MNERHVLVVFPHPDDEAFGVSGTIAEHAQNGTPVTYACLTLGEMGRNMGVPPFANRETLPHIRKQELEEACRILGIHDLRLLGYRDKTVEFEDEEELADQIAAIVAETNPSLVITFYPGYSVHPDHDACGAAVIRALKRWPKEERPTVHCVAFAKNCEQDLGQPDVVRDVSSVIDTKLAAIRAHRSQTEGLMQAASKRGDALAWLKTERFWTYRWDD,soluble
5,VGKLQKREYSHEVNDEDLRKKVHDECYARAYEVATSGTGKHERGEAFEKIVEEFKAQYTEEELAEKAEMIARYYHDVEKEAMRRAILDEGKRLDGRKTTEIRP,not soluble
6,MNNHFKCIGIVGHPRHPTALTTHEMLYRWLCDQGYEVIVEQQIAHELQLKNVPTGTLAEIGQQADLAVVVGGDGNMLGAARTLARYDINVIGINRGNLGFLTDLDPDNALQQLSDVLEGRYISEKRFLLEAQVCQQDRQKRISTAINEVVLHPGKVAHMIEFEVYIDETFAFSQRSDGLIISTPTGSTAYSLSAGGPILTPSLDAITLVPMFPHTLSARPLVINSSSTIRLRFSHRRSDLEISCDSQIALPIQEGEDVLIRRCDYHLNLIHPKDYSYFNTLSTKLGWSKKLFMAGDPLEHHHHHH,not soluble
7,MGSDKIHHHHHHMVEFQSRIGKDGRLTVMEIPFDARETFQMPKGTIFVCGTINGIPYRGKLLSRGNGKQVLTIDKTLQKGLGYAGQDFPVNVAMACENQAEMVDEEKEAIPRLHSDMEAITAIAGRASVRKYMDKTVEPQKLEVILRAGLSAPSAKNKRPFHFVVVEDKAVLGAWAAGNSNAKMLSHAPCCIVVCGDGNVEGTRDFLVGGCAAATQNMLIAIHALGLGGVWCGVLRGKEWSRQVAADLYLPVKVEPLAVIALGYPTEQEKAPVPWDMKSHIHYERW,not soluble
8,MGSDKIHHHHHHMSRIVNVKLSLKRYEYEKPFHITGSVSSESRNVEVEIVLESGVKGYGEASPSFRVNGERVEALLAIENAVREMITGIDVRNYARIFEITDRLFGFPSLKAAVQFATLDALSQELGTQVCYLLGGKRDEIETDKTVGIDTVENRVKEAKKIFEEGFRVIKIKVGENLKEDIEAVEEIAKVTRGAKYIVDANMGYTQKEAVEFARAVYQKGIDIAVYEQPVRREDIEGLKFVRFHSPFPVAADESARTKFDVMRLVKEEAVDYVNIKLMKSGISDALAIVEIAESSGLKLMIGCMGESSLGINQSVHFALGTGAFEFHDLDSHLMLKEEVFRGKFIQDGPRMRVKDQ,not soluble
9,MSNLSGTDKSVILLMTIGEDRAAEVFKHLSTREVQALSTAMANVRQISNKQLTDVLSEFEQEAEQFAALNINANEYLRSVLVKALGEERASSLLEDILETRDTTSGIETLNFMEPQSAADLIRDEHPQIIATILVHLKRSQAADILALFDERLRHDVMLRIATFGGVQPAALAELTEVLNGLLDGQNLKRSKMGGVRTAAEIINLMKTQQEEAVITAVREFDGELAQKIIDEMFLFENLVDVDDRSIQRLLQEVDSESLLIALKGAEPPLREKFLRNMSQRAADILRDDLANRGPVRLSQVENEQKAILLIVRRLAETGEMVIGSGEDTYV,not soluble
10,SNAMTTPIRVVVWNEFRHEKKDEQVRAIYPEGMHTVIASYLAEAGFDAATAVLDEPEHGLTDEVLDRCDVLVWWGHIAHDEVKDEVVERVHRRVLEGMGLIVLHSGHFSKIFKKLMGTTCNLKWREADEKERLWVVAPGHPIVEGIGPYIELEQEEMYGEFFDIPEPDETIFISWFEGGEVFRSGCTFTRGKGKIFYFRPGHETYPTYHHPDVLKVIANAVRWAAPVNRGEIVFGNVKPLEPIKAKQGGVTQ,soluble
11,MGSDKIHHHHHHMNNIQAIRKKVETQIDDLQNKTDEIAEFNQAKVLDAFQENKVSDFHFHPSTGYGYDDEGRDTLERVYATVFKTEAALVRPQIISGTHAISTVLFGILRPDDELLYITGQPYDTLEEIVGIRKQGQGSLKDFHIGYSSVPLLENGDVDFPRIAKKMTPKTKMIGIQRSRGYADRPSFTIEKIKEMIVFVKNINPEVIVFVDNCYGEFVEYQEPPEVGADIIAGSLIKNPGGGLAKTGGYIAGKEALVDLCGYRLTTPGIGREAGASLYSLLEMYQGFFLAPHVTAQAIKGARFTAAMLAEFGVEADPVWDAPRTDLIQSVSFHNKEKMVAFAQAIQAASPVNAHVLPIGAYMPGYEDDVIMAAGTFIQGASLELTADGPIREPYQLYVQGGLTYEHIKIAVTRAIQKIV,not soluble
12,MGSDKIHHHHHHMTDSDLWIQVSDVRKHYAIGKSGLSDALVSAQSSANTGPGEKIAVDGISLTIRNGERLGIVGRNGAGKSTLLHMVAGLSAPTAGKIDVHGRVTAIMTLGLGLREHASGRENIYIDGEVQGKSRVEIDAVIDEIIEFAELGEFIDMPVRTYSTGMKSRLAFAMISCLEPEILIIDEALSAGDAKFSAKATRKIQEICAKGRIVILVSHSMASIQSMCNRCLWIDQGKIVMDGLPDQVCKAYIDAVRSEDEAKLLERFRDEASTRFSLDGWDVDALYVLQGDTATQRVLLEAGEDALIRTKIQVPTGCEEAQLVMSVTRLDGLVVTQRRIALDKYTEAGVARVQFAMRPLVLGQGVYRLEIAAELGQALVASRSMIFEVFVRQPPTGGVPMLLYPSEATASLLS,not soluble
13,GPGSMPKSKRAKIVPLTKTQAKTREDKDKLIERIREALEDYSDVYTFQLHNIRTNILQQIREERAGDSRIFLGNNKVMMIAIGRDEESAQRQNLHKLSPFLTGLCGLLFTNLSKKEVKEYFATVGAPVYARTGQTATESLVLKGGPLPQFPHSMFDHLAKLGLPIKLDRGVIVLLQDTTVCEPGDTLSAEAAQLLKLFGVQSAKFKMDLTAHWTSGVAKKVSSSASKRSEK,soluble
14,MSLCIIGSGPGGLCMARALKRQGLDYEQFERHGEVGGVWDINNPGTPMYQSAHFISSRDQSGFIDYPMPAHFPDYPSNRQIFEYVRSFAVAFDLYDRIRFNTAVKDVEKEQDGRWLVTLASGERRRYRAVVCATGCNWDPNMPEVKGQFEGTVRHSVTYKNPDEFKGKRVMVIGADNSGADIACDAAKHADKAFISMRRGYHLIPKHLFGMPVDEFGEKGPQLPMWLARPVFQTILRVINGDTRRFGLPRPDHKLFESHPLLNTQLLHYLQHGDIQVKPDVSHYEGQHVVFKDGTREPLDLVLYATGYKWSCPYAAKYFEWQGGRPRLYLSIFSREHHNLFGIGYVETNSSAYKLFDSEAHAVACYLRDQLHQKTQASHFDQLIATDDPDLSGGIKFVKSQRHEVYLEAHALKKYLRKLFHSEGHHHHHH,not soluble
15,SLRSFEAPNGVAFASIGDTGAANSNQAKCGISLAALSVALDIKFVNLLGDNLYPHGVTSAVDPLWQSAFEVPFGAPSLQKVAFFPVLGNHDYHLDPYAQIDRCIRLGNEHLNFTEKEKTDGSRPQLSKTYQMQAMLPWMKIHHEKFRYSFDQTTKMHGLDGPRWRLPNFWYFTRHVFRNVPRHVKNPFVTGASISDISLVSTEEDKTDVTVVTIYIDSMVLLLEEGSKSSSIRYRFPRDELYYRHLEFLEDTLKAATREADWIFIAGHHPVVNYSVRNAKPSDFAVRLTELMRKYKVDTFLSGHEHALSFFQEPDANTTHIISGTGSKLSARDPIPSKDCLFSVREHGVAVHVLGKEELHHGFVSADGKVLFTASQRRQDRT,soluble
16,MPENSQPTTTEKGSEYLEQLANEAEELRKKLDQERHKLNDIPIQQAAERLDVMGALGVKQRRILKGHVGKVLCMDWSLDKRHIVSSSQDGKVIVWDGFTTNKEHALTMPTTWVMACAFSPSSQMIACGGLDNKCSVVPLSFEDDIIQKKRQVATHTSYMSCCTFLRSDNLILTGSGDSTCAIWDVESGQLIQNFHGHTGDVFAIDVPKCDTGNTFISAGADKHSLVWDIRSGQCVQSFEGHEADINTVRFHPNGDAFATGSDDATCRLFDLRADRQVCVYEKESILFPVNGVDFSLSGRILFAGYGDYRVGVWDSLKCARHSVLYGHENRISCLRTSPDGTAVCSASWDCTIRIWA,not soluble
17,MGHHHHHHSHMIALKMFYTEETYEQFFDYGLDYVIDASDTICYKIHLMKECLKRDIPLISSMGAANKTDPTRFQIADISKTHTDPIAKVVRTKLRKEGIKKGVQVIFSDESPIVIREDVRKEVGNDEAKIRKAKMPPSSNAFVPSVAGLIMGGHVVMDLLKDIEIKRVKDK,soluble
18,KKKPLIGMVHLKPLPGSYHYNDNFDDIVDFAIKEAKKLEEAGFDAVMIENFGDAPFKKEADKITIASMAVIAKAIKEEVSLPLGINILRNDAIGAYSIAYVVKADFIRVNVLSGVAFTDQGIIEGKAYELAKLKKLLPSKIKVFADVHVKHAYHFIDFESSLLDTVERGLADAVIISGKRTGKEVDIEKLKLAKELVDVPVIVGSGTNYNNLRILWSYADGFIIGTWIKKDGKANNEIDIDRAKKIVNLANKLKM,not soluble
19,MGSDKIHHHHHHMILDERVNSNFDQLNDNDIQIAHYVNTHIDVCKNMKIQDLASQTHASNATIHRFTRKLGFDGYSDFKSFLKFEDSKNHQLPSDSMEQFKQEIENTFNYLERIDYRLLTHKMHHATTIYLYGTGRAQMNVAEEAQRILLTMHKNIILLHDVHELKMVLNKTIPEDLFFIISLSGETHQLKEVTQLLQLRQKYFISVTTMKDNTLAQQADYNVYVSSNTFYLNDGTDYSSFISYHIFFETLLRKYNEYKENHELT,not soluble
